The target of assay [1] is T1, full-length mature human EMR2 (residues Q24-N823) with N-terminal aspartic acid/lysine epitope tag, … (human, UniProt Q9UHX3 24-823).
T1 sequence: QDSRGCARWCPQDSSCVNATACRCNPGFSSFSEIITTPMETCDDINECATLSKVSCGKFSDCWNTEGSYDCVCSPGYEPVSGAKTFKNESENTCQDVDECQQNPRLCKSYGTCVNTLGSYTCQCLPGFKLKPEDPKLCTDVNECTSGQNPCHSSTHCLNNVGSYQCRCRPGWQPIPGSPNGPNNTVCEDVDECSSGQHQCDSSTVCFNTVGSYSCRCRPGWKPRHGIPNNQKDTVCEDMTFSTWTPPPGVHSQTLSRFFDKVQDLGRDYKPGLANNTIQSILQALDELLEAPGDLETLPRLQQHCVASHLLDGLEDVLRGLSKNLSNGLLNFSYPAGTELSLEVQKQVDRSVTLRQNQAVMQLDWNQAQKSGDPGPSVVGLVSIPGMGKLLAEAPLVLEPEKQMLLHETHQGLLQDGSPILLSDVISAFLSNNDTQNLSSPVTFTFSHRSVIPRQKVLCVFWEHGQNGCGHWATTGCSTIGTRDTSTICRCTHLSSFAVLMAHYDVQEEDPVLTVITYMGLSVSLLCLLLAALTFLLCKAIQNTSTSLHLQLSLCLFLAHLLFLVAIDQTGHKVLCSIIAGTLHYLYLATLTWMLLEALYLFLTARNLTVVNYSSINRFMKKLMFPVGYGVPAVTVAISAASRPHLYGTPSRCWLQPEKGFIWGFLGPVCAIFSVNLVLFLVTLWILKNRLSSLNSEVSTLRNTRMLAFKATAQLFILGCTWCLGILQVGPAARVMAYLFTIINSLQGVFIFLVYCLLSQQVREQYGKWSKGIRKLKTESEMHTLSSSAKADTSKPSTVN
Nature of the assay: cell-based or functional assay.

Assay [2] has as its target T2, full-length mature cynomolgus EMR2 (residues Q24-N816) with N-terminal aspartic acid/lysine epitope tag, … (cynomolgus monkey (Macaca fascicularis), UniProt A0A2K5WL23 21-816).
T2 sequence: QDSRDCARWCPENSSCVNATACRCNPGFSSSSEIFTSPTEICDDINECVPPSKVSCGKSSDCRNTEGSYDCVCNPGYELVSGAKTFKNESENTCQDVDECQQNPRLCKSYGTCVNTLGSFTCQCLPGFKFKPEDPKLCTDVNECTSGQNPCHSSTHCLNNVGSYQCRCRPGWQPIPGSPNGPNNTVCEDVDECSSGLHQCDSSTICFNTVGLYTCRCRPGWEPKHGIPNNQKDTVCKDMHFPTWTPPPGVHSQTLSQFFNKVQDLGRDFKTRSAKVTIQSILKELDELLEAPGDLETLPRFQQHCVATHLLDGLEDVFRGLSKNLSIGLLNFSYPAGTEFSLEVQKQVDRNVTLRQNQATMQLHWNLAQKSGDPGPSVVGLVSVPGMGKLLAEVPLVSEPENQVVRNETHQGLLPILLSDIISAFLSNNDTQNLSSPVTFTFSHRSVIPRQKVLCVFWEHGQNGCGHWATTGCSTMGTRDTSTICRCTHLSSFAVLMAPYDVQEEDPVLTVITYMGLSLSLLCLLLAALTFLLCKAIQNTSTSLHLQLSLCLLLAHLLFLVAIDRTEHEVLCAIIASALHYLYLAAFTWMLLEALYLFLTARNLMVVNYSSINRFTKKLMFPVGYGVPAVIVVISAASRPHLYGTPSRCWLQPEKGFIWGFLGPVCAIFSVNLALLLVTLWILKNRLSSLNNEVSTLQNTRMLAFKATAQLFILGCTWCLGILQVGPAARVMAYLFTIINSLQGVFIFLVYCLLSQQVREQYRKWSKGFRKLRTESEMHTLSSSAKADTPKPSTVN
As to the kind of experiment: cell-based or functional assay.

Assay [3] deals with T3, full-length mature human CD97 (residues Q21-I845) with N-terminal aspartic acid/lysine epitope tag, … (human, UniProt P48960 21-835).
T3 sequence (looked up): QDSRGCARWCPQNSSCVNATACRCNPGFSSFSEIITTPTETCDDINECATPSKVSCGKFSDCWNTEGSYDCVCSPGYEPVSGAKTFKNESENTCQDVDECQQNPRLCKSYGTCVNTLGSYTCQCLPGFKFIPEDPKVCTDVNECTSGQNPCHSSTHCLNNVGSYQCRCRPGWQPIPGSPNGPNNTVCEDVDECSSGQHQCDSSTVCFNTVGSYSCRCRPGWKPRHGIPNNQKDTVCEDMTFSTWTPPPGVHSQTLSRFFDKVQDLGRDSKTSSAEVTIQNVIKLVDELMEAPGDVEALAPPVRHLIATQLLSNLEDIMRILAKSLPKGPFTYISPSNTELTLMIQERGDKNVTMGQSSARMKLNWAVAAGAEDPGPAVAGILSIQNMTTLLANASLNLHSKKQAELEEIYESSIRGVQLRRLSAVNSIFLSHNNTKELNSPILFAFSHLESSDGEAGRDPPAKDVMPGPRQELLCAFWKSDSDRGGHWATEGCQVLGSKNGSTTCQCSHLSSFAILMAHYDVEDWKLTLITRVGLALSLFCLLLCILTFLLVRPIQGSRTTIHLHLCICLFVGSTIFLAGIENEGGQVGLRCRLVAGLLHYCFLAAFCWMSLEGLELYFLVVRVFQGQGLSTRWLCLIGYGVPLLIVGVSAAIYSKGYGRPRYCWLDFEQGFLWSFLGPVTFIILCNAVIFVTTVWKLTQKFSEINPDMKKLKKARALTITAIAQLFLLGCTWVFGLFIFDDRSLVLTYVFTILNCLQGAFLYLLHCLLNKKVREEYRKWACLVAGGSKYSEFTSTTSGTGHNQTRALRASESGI
Nature of the assay: cell-based or functional assay.

In assay [4] the target is T1, full-length mature human EMR2 (residues …). As to the kind of experiment: flow cytometry on transduced HEK293T; 293 naive MFI 326.
Protocol: (§1) The exemplary antibodies were also tested using flow cytometry to determine their ability to associate with hEMR2, cEMR2 and CD97 expressed on the surface of cells.
Assay [5] deals with T2, full-length mature cynomolgus EMR2 …. The assay is described as above.
Protocol: as §1
Assay [6] has as its target T3, full-length mature human CD97 (residues …). Described as above.
Protocol: as §1
Assay [7] addresses T1, full-length mature human EMR2 (residues …). As to the kind of experiment: flow cytometry on transduced HEK293T; 293 naive MFI 97.8. A general note: Flow cytometry measures light scatter and fluorescence of single cells or particles in a stream.
Protocol: as §1
Assay [8] has as its target T2, full-length mature cynomolgus EMR2 …. The description is as above.
Protocol: as §1
The target of assay [9] is T3, full-length mature human CD97 (residues …). The description is as above.
Protocol: as §1
Assay [10] concerns the target T1, full-length mature human EMR2 (residues …). As to the kind of experiment: cell-based or functional assay. This is another data set of the same source.
The target in assay [11] is T3, full-length mature human CD97 (residues …). Nature of the assay: cell-based or functional assay. The source holds these as a separate data set.
For assay [12], the target named is T1, full-length mature human EMR2 (residues …). As to the kind of experiment: flow cytometry on transduced HEK293T; 293 naive MFI 97.1.
Protocol: as §1
For assay [13], the target named is T2, full-length mature cynomolgus EMR2 …. The description is as above.
Protocol: as §1
For assay [14], the target named is T3, full-length mature human CD97 (residues …). Described as above.
Protocol: as §1

Where two headings read alike, the source gives them in different places.

B1: SC93.252 (antibody, IgG2a, V domains shown)
VH: QVQLQQSDAELVKPGASVKISCKVSGFSFTDHTIHWMRQRPEQGLEWIGYIYPTDGNTRYNEKFKGKASLTADKSSTTAYMQLSSLTSEDSAVYFCAKRGYYWYFDVWGTGTTVTVSS
VL: DIQMTQASSYLSVSLGGRVTITCKASDHINNWLAWYQQKPGNAPRLLISHATNLETGFPSRFSGSGSGKDYTLSITSLQTEDVATYYCQQYWNIPYTFGGGTKLEIE
notes: murine, IgG2a
On to B1, for which the “% live, FAB-saporin killing assay” value stood at 10.8% in [1], 9.42% in assay [2] and 9.09% in assay [3]. For the same molecule, the “FC MFI” value stood at 40500 in assay [4], 45200 in assay [5] and 43800 in assay [6].

B2: SC93.239 (antibody, V domains shown)
VH: LVQLQQSGVELARPGASVKLSCKASGYIFTSYGISWVKQRTGQGLEWIGNIYPRTGNTYYNEKFKDKATLTADKSSNTAYMELRSLTSEDSAVYFCARGTHYDPLDYWGQGTTLTVSS
VL: ENVLTQSPAIMSASPGEKVTMTCRASSSVSSSDLHWYQQKSGASPKLWIYSTSNLASGVPARFSGSGSGASCSLTISSVEAEDAATYYCHQYSGYPWTFGGGTKLEIK
notes: Murine hybridoma antibody with a kappa light chain; also called clone SC93.239; SC93.239 (Bin A)
As for B2, the figures for the “% live, FAB-saporin killing assay” value in assay [1], in assay [2] and in [3] were 16.8%, 16.7% and 106%, respectively. The “FC MFI” value in assay [7] stood at 71100; in assay [8], 76700; in [9] it was 925.

B3: SC93.15 (antibody, IgG1, V domains shown)
VH: EVQLQQSGPELVKPGASVKISCKGSGYTFTDYFMNWVKLSHGKSLEWIGEINPNNGGTNYNQKFKGKATLTVDKSSSIAYMELRSLTSEDSAVYYCARPGTNYWGPGTTLTVSS
VL: DIVMTQSHKFMSTSVGDRVSITCKASQNVGTSVAWYQQKPGHSPKLLIYWASTRHTGVPDRFTGSGSGTDFSLTISSVQSEDLTDYFCQQYSSYPLTFGGGTKLEIK
As for B3, the entries for the “% live, FAB-saporin killing assay” value in assay [10] and in assay [11] were 15% and 99.5%, respectively.

B4: SC93.216 (antibody, IgG1, V domains shown)
VH: EVQLVESGGGLVKPGGSLKLSCAASGFTFSSYGMSWVRQTPEKRLEWVAAIHSNGDITYYPDTVKGRFTISRDNAKNTLYLQMSSLTSEDTALYYCANLAYWGQGTLVTVSA
VL: EIQMTQSPSSMSASLGDRITITCQATQDIVKNLNWYQQKPGKSPSSLIYYATELAEGVPSRFSGSGSGSDYSLTISNLESEDFADYYCLQFYEFPLTFGAGTKLELK
On to B4, for which the “% live, FAB-saporin killing assay” value in assay [10] was determined as 102%; in assay [11], 107%.

B5: SC93.243 (antibody, IgG2b, V domains shown)
VH: QVQLQQSGAELMKPGASVKISCKATGYTFSSYWIEWVKQRPGHGLEWIGEILPGSGRTNYNERLKGKATFTADTSSNTAYMQLSSLTSEDSAVYYCARPYFYGSNFDFWGQGTTLTVSS
VL: DIVMTQSHKFMSTSVGDRVSITCKASQDVGTAVAWYQQKPGQSPKLLIYWASTRHTGVPDRFTGSGSGTDFTLTISNVQSEDLADYFCQQYSSYHTFGGGTKLEIK
notes: murine, IgG2b
As for B5, the “% live, FAB-saporin killing assay” value in [1] came out at 68.7%; in assay [2], 20.8%; in assay [3], 91.9%. Further, the “FC MFI” value in assay [12] is 42700; in assay [13], 65800; in [14] it was 8140.
